Measurements published in a protein production outcome set (Wang et al. 2014).

Assay: label from the status in PepcDB records

Sequence	protein production
MNDIYFDDNRHNWNDRARLHEEAGYGIDKLLSDRDYITPEVEQDKDLIGDLTNKDVLHLQCHLGTDTISLARLGARRVLGLDLSDESLRRARNLAKKAGVSIDFIEGNVYDAREVIVGDFDLIYTSLGVLCWLPDITAWGRVVASLLKSGGKFIIRDDHPMFMTIGEDVRDGFKIEQPYFEQSQPMTWEDEGSYIETDASFEKIKNTRNHQWNHALSEIIMALINAGLQIDLVSESQHAAWNIWPHLMEKCSDGSYRLKKHSEVLPLQFLISAHKPEA	failed
MFVLNIFSTTHKQRGLNRASCPPLGNYSNNHTLAYRVKCISEETRDSNSLVSSLNRKLWKTSVAGSDIPMIYSPFLEDMQNTLFASFETVEDYPLSEFLASAQSSKKPARIESWCYQCPKFRKIRLTYLDAGVAAQVFNAVWYPISSLELPILGVDFLSFGGKNVLCVMDFQPLMNDQYYLDKYIQPLHPIRERYADLAGRMSSRFYDENRFFSKELLFGRFDSTKPIYERLFPAFREYLDLYITLAKQTVEDDKSRSIIWQLQCEYDRYSAEKDPAMSLFRSYFGSTWAHRFVYEFLFENSRYESSLDNKT	not failed
NFATGTIATDPLNDSQVAVIASISKEMPGISISTSWDRKVLETSLSSIVGSVSSEKAGLPAEEAEAYLKKGYSLNDRVGTSYLEKQYEETLQGKRSVKEIHLDKYGNMESVDTIEEGSKGNNIKLTID	failed
MRVAVITDSHGNAYALEATLREVHAAAPDLIVNLGDQIEGCADPARAAALQADLGALEVRGNNEEKLWPDGRRTPLAQEVGAWLAAQVSPADRERLAALPLTARVEGLFACHGTPESAWDSLLWVWDAAGGFYRSRDPRELRRMVEPLGAEVVVCGHTHRAGATRVGDTLVVNCGAISDQVDGDPRARWTLLERRGGGWNVEFHNVAYDIAGAVAWARAHSPFGDFEAHLLESGEMTGRGTGGI	failed
RTFESVADLAAAAGEKVGQSDWVTITQEEVNLFADATGDHQWIHVDPERAAAGPFGTTIAHGFMTLALLPRLQHQMYTVKGVKLAINYGLNKVRFPAPVPVGSRVRATSSLVGVEDLGNGTVQATVSTTVEVEGSAKPACVAESIVRYVA	not failed
MTDRYIAFANSPVGRRLVGAVGLPSPLRLERWQAGRVRPVDGPLVIGGSGALAEAVLPFAGKLTDAVFAAVDGQFELPRWTAEHSPRAKAVLFDASGLTRFEQLVALRDFFQPVLKGLDKCPKVVVLGRPPESLKDPVTASVQRSLEGFTRSLGKEIRRGGNVQLLYVGKGAEDQLEGALRFFLSPKSAYVSGQVIRLAANSAQVHDWSKPLAGQRALVTGAARGIGAAIAETLARDGAEVVLLDVPPAREALEGLAARLGGRAVALDICAADAGQQLVEALPEGVDIVVHNAGITRDKTLAKMSSDFWNSVINVNLNAPQVLTQALLDGGKLHDNGRVVLLASISGIAGNLGQSNYAVSKAGLIGLAQAWAPALGKRGITINAVAPGFIETQMTAAIPLTIREAGRRMNSMSQGGLPQDVAETVAWFAQPSSGAVSGQVLRVCGQSLLGA	failed
MGKVSSLKLKTNRRCIYITTIKEITEAIKADPDNAEYTAKGWDPLFHVLPTATILVISQAPGRIAQNTKTYFNDASGDRLRDWMGVTREQFYQSDRIAVMPLDFYYPGKGKSGDLPPRKGFMDKWHEPLLAMMPNVQLTLLVGQYAIKAYLGRSRQKTLTATVQNYQDYLPDYFPLVHPSPLNYGWQKKNPWFQATVVPDLQRRVQIALK	failed
MSASVLSDPTMLISTPEVILVSPVSVTQISGDEPDSVTCDCCGLTEECTQSYIEMVRERYMGKWICGLCSEAVKYEVMRTKRLLTTEEAMARHMNMCNKFKSSSPPPNPTGHLISAMRQILRKSLDSPRMLRSMPNSPSKDDQDHHHDCVSNVLSRSDSCFASLT	failed
YESIDLKAVLFDMDGVLFDSMPNHAESWHKIMKRFGFGLSREEAYMHEGRTGASTINIVSRRERGHDATEEEIKAIYQAKTEEFNKCPKAERMPGALEVLTKIKSEGLTPMVVTGSGQTSLLDRLNHNFPGIFQANLMVTAFDVKYGKPNPEPYLMALKKGGFKPNEALVIENAPLGVQAGVAAGIFTIAVNTGPLHDNVLLNEGANLLFHSMPDFNKNWETLQSALKQ	failed
MERRLGVRAWVKENRGSFQPPVCNKLMHQEQLKVMFIGGPNTRKDYHIEEGEEVFYQLEGDMVLRVLEQGKHRDVVIRQGEIFLLPARVPHSPQRFANTVGLVVERRRLETELDGLRYYVGDTMDVLFEKWFYCKDLGTQLAPIIQEFFSSEQYRTGKPIPDQLLKEPPFPLSTRSIMEPMSLDAWLDSHHRELQAGTPLSLFGDTYETQVIAYGQGSSEGLRQNVDVWLWQLEGSSVVTMGGRRLSLAPDDSLLVLAGTSYAWERTQGSVALSVTQDPACKKPLG	failed
MENTAPDVLDAGAAELPVERLKPELADVPNEKEDEDEAVCGGAEGVVELVVELAVLFKKENPVEAENGEAEAFEVLDVDEELKVDTPNGDGEEVVAPDEEDAKRDGVEPAEEDEPKNGEEPVAPKIDGEEPEADEATLKEGDEPVAPKMDDEEPGADEATLKDGVAPVADDGAPKRGDVEVAADEDAPKREELEAEADEGAENKEGEDPKRGVEPLAGAAPNGDDDGVAAEEAGAPNRDDDGVAVEEAEEVTNPKGEEPGAAEEALVVDEPNSDGAGADEEAAVPNPNDGVVEAGVTEAEDPNPNDGVDEEAEEPNPKEGVEEAPNPNDGVVEEAGVDDTEDPKPNPVELGFEDWLKEKDNGEVVDEAEEELVAEEDPNENPPTELD	failed
MIAHLLLSLALLLTAAKLGGVLAVRLGQPAVLGELVAGIALGALPALGLHGAAGLAHDPVLEALAELGVILLLFEVGLSTRLAELVKVGASAFLVACIGVVAPMALGYGVGAWLLPGASPLAHLFLGAALSATSVGITARVLRDMGRIGSPAGQIILGAAVIDDVLGLLVLAVMVGLAGGGGDGAGTWTVLALVGAKAVGFLGAALVAGRWAAPRLFAVAARLRAQGVLFTLALAVCLALSWAASAVELAPIVGAFAAGLVLEGVPFAELSGGEERLEERLTPLAAVLVPLFFVRMGLAVDLGALGTGSLALAGALSVAAIVGKQACALAVVTPGVDRLAVGLGMIPRGEVGLIFANIGLSLTAGGRPLLGPGAFAAIVAMVLVTTLVTPPLLRWRMGSAPAAAAVRPGPGVRAA	failed
GIHMGKIKRRAITEHEKRALRHYFFQLQNRSGQQDLIEWFREKFGKDISQPSVSQILSSKYSYLDNTVEKPWDVKRNRPPKYPLLEAALFEWQVQQGDDATLSGETIKRAAAILWHKIPEYQDQPVPNFSNGWLEGFRKRHILH	not failed
MPSRQLQILIRKTLPLVPDHVLIIGESGIAFSKATNLLGQEFEHILFDGRNGIHLEALAIAAGTLKMGGTLCLVLSDWENLSQQPDQDSLRWNGNQSAIATPNFIYHFKQCIERYHFPILREESAVEFPTVFYSNEHHKNATLAQQQIIENILQAEQDIYFLTAKRGRGKSALLGMLANQIQAPVYLTAPNKSAVHSVIEFSEGDIEFIAPDELALTLQTEPEFSQSAWLLVDEAAMIPLPLLQEYSRYFQHIVFSTTIHSYEGTGRGFELKFKRKIHRTFQHFELKQPLRWQENDPLEHFIDDLLLLNAEDDFQHFDYSNITYNIEENAKNLSFPCLRGKVPEGPKGGFRYS	failed
FAFVYEAQDVGSGREYALKRLLSNEEEKNRAIIQEVCFMKKLSGHPNIVQFCSAASIGKEESDTGQAEFLLLTELCKGQLVEFLKKMESRGPLSCDTVLKIFYQTCRAVQHMHRQKPPIIHRDLKVENLLLSNQGTIKLCDFGSATTISHYPDYSWSAQRRALVEEEITRNTTPMYRTPEIIDLYSNFPIGEKQDIWALGCILYLLCFRQHPFEDGAKLRIVNGKYSIPPHDTQYTVFHSLIRAMLQVNPEERLSIAEVVHQLQEIAAARNVNPKSPITELLEQNGGYGSAT	failed
MNFLSQRYTGKSLHPDETKCYKNFTQTAQKLTHRLAESINHYVNHIDCVINTNLYNRLLAEKKESNHMIYKERETWLEAILNTLPDHVFILDESGRYIESFGGTHHSKTFNAERYIGLQLSDVLSPTKADELMGFIFDVMQDNETKVVKYNLSLHDHLLLPIEELEALENPEEMWFEAIIKPVNAPENANKLVIWSVRDITKTHLLEQRLKQLSETDALTGLLNRRAFISNLDNAIIQHTKRSQTLSCLMIDIDHFKDINDSVGHFSGDHVITRIAHVCQGVIRGSDFIGRLGGEEFAVILTDTNAIQAYEVAERIRQAIQATICHVDDVEITTTVSIGVAELNSQQSNAKELLIEADKAMYYSKHSGRNQVTLAYENLPDLKLYQAGHLKIQRVS	failed
